Data reported in patent US20180155451A1 (published 2018).

T1: FcγRIIb extracellular domain with C-terminal His tag (human, UniProt P31994 43-217)
T1 construct: extracellular domain; also called FcgRIIb; 2b; not shown: His tag attached to the C terminus
T1 sequence (looked up): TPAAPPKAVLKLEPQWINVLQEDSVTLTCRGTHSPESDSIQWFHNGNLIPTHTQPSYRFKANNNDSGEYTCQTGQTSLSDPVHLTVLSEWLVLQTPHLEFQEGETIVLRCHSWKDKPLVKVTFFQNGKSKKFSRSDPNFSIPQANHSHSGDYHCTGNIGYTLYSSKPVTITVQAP

B1: GpH7-A5/GpH7-B3 variant N325_01G/GpL16-k0 (antibody, human IgG1, kappa)
heavy 1: not shown
heavy 2: not shown
light: DIVMTQSPLSLPVTPGEPASISCQASESLVHSNRNTYLHWYLQKPGQSPQLLIYKVSNRFSGVPDRFSGSGSGTDFTLKISRVEAEDVGVYYCSQNTHVPPTFGQGTKVEIERTVAAPSVFIFPPSDEQLKSGTASVVCLLNNFYPREAKVQWKVDNALQSGNSQESVTEQDSKDSTYSLSSTLTLSKADYEKHKVYACEVTHQGLSSPVTKSFNRGEC
notes: Heterodimerized IgG1; alteration in one H chain only; also called He Ab
B2: GpH7-A5/GpH7-B3 variant A327_09D/GpL16-k0 (antibody, human IgG1, kappa)
heavy 1: not shown
heavy 2: not shown
light: B1 light
notes: as for B1
B3: GpH7-A5/GpH7-B3 variant A327_20W/GpL16-k0 (antibody, human IgG1, kappa)
heavy 1: not shown
heavy 2: not shown
light: B1 light
notes: as for B1
B4: GpH7-A5/GpH7-B3 variant L328_01G/GpL16-k0 (antibody, human IgG1, kappa)
heavy 1: not shown
heavy 2: not shown
light: B1 light
notes: as for B1
B5: GpH7-A5/GpH7-B3 variant A327_14T/GpL16-k0 (antibody, human IgG1, kappa)
heavy 1: not shown
heavy 2: not shown
light: B1 light
notes: as for B1
B6: GpH7-A5/GpH7-B3 variant N325_04F/GpL16-k0 (antibody, human IgG1, kappa)
heavy 1: not shown
heavy 2: not shown
light: B1 light
notes: as for B1
B7: GpH7-A5/GpH7-B3 variant N325_07I/GpL16-k0 (antibody, human IgG1, kappa)
heavy 1: not shown
heavy 2: not shown
light: B1 light
notes: as for B1
B8: GpH7-A5/GpH7-B3 variant K326_20W/GpL16-k0 (antibody, human IgG1, kappa)
heavy 1: not shown
heavy 2: not shown
light: B1 light
notes: as for B1
B9: GpH7-A5/GpH7-B3 variant L328_04F/GpL16-k0 (antibody, human IgG1, kappa)
heavy 1: not shown
heavy 2: not shown
light: B1 light
notes: as for B1
B10: GpH7-A5/GpH7-B3 variant A327_07I/GpL16-k0 (antibody, human IgG1, kappa)
heavy 1: not shown
heavy 2: not shown
light: B1 light
notes: as for B1
B11: GpH7-A5/GpH7-B3 variant K326_06M/GpL16-k0 (antibody, human IgG1, kappa)
heavy 1: not shown
heavy 2: not shown
light: B1 light
notes: as for B1
B12: GpH7-A5/GpH7-B3 variant N325_02A/GpL16-k0 (antibody, human IgG1, kappa)
heavy 1: not shown
heavy 2: not shown
light: B1 light
notes: as for B1
B13: GpH7-A5/GpH7-B3 variant K326_19Q/GpL16-k0 (antibody, human IgG1, kappa)
heavy 1: not shown
heavy 2: not shown
light: B1 light
notes: as for B1
B14: GpH7-A5/GpH7-B3 variant K326_08L/GpL16-k0 (antibody, human IgG1, kappa)
heavy 1: not shown
heavy 2: not shown
light: B1 light
notes: as for B1
B15: GpH7-A5/GpH7-B3 variant Y300_05P/GpL16-k0 (antibody, human IgG1, kappa)
heavy 1: not shown
heavy 2: not shown
light: B1 light
notes: as for B1
B16: GpH7-A5/GpH7-B3 variant A327_01G/GpL16-k0 (antibody, human IgG1, kappa)
heavy 1: not shown
heavy 2: not shown
light: B1 light
notes: as for B1
B17: GpH7-A5/GpH7-B3 variant A327_08L/GpL16-k0 (antibody, human IgG1, kappa)
heavy 1: not shown
heavy 2: not shown
light: B1 light
notes: as for B1
B18: GpH7-A5/GpH7-B3 variant N325_03V/GpL16-k0 (antibody, human IgG1, kappa)
heavy 1: not shown
heavy 2: not shown
light: B1 light
notes: as for B1
B19: GpH7-A5/GpH7-B3 variant L328_05P/GpL16-k0 (antibody, human IgG1, kappa)
heavy 1: not shown
heavy 2: not shown
light: B1 light
notes: as for B1

molecular target: T2, FcγRIIIa extracellular domain with C-terminal His tag (human, UniProt P08637 17-208); experiment: SPR (Biacore); He/Con_3a divided by He/Con_2b (reference: binding to FcγRIIb)
T2 construct: extracellular domain; also called FcgRIIIa; 3a; not shown: His tag attached to the C terminus
T2 sequence (P08637 17-208): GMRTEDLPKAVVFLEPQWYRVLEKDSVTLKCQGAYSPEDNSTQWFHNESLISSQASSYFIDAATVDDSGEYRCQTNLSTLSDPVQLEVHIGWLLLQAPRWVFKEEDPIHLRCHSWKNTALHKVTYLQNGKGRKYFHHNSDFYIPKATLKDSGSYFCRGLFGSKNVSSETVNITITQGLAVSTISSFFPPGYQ
Description: (§1) Analysis of interaction between objective antibody and the FcγR was carried out using Biacore T100 (GE Healthcare). HBS-EP+ (GE Healthcare) was used as the running buffer, and the measurement temperature was set to 25° C. Chips produced by immobilizing the antigen peptide by the amine coupling method to a Series S Sencor Chip CM5 (GE Healthcare), or alternatively, chips produced by allowing preliminarily biotinylated antigen peptides to interact with and immobilize onto a Series S Sensor Chip SA (certified) (GE Healthcare) were used. Antibodies of interest were captured onto an antigen peptide-immobilized chip, and allowed to interact to each FcγR diluted with running buffer. To regenerate and repeatedly use the chip, the antibodies captured on the chip were washed off by reacting 10 mM glycine-HCl, pH 1.5.
(§2) The FcγR-binding activity of each antibody was assessed primarily using as an indicator the FcγR-binding activity and dissociation constant for FcγR.

| He_3a/2b (IIIa/IIb) [ratio] | Binder |
| --- | --- |
| 0.28 | B1 |
| 0.49 | B2 |
| 0.65 | B3 |
| 0.56 | B4 |
| 0.46 | B5 |
| 0.14 | B6 |
| 0.17 | B7 |
| 0.57 | B8 |
| 0.36 | B9 |
| 0.33 | B10 |
| 0.7 | B11 |
| 0.47 | B12 |
| 0.76 | B13 |
| 0.65 | B14 |
| 0.38 | B15 |
| 0.63 | B16 |
| 0.67 | B17 |
| 0.27 | B18 |
| 0.62 | B19 |

molecular target: T1, FcγRIIb extracellular domain with …; experiment: SPR (Biacore), relative binding
Description: as §1, §2

| He/Con_2b (IIb binding) | Binder |
| --- | --- |
| 101 % of GpH7-A5/GpH7-B3/GpL16-k0 (=100) | B1 |
| 172 % of GpH7-A5/GpH7-B3/GpL16-k0 (=100) | B2 |
| 78.8 % of GpH7-A5/GpH7-B3/GpL16-k0 (=100) | B3 |
| 80.2 % of GpH7-A5/GpH7-B3/GpL16-k0 (=100) | B4 |
| 89.4 % of GpH7-A5/GpH7-B3/GpL16-k0 (=100) | B5 |
| 143 % of GpH7-A5/GpH7-B3/GpL16-k0 (=100) | B6 |
| 171 % of GpH7-A5/GpH7-B3/GpL16-k0 (=100) | B7 |
| 148 % of GpH7-A5/GpH7-B3/GpL16-k0 (=100) | B8 |
| 219 % of GpH7-A5/GpH7-B3/GpL16-k0 (=100) | B9 |
| 127 % of GpH7-A5/GpH7-B3/GpL16-k0 (=100) | B10 |
| 165 % of GpH7-A5/GpH7-B3/GpL16-k0 (=100) | B11 |
| 64.4 % of GpH7-A5/GpH7-B3/GpL16-k0 (=100) | B12 |
| 139 % of GpH7-A5/GpH7-B3/GpL16-k0 (=100) | B13 |
| 177 % of GpH7-A5/GpH7-B3/GpL16-k0 (=100) | B14 |
| 116 % of GpH7-A5/GpH7-B3/GpL16-k0 (=100) | B16 |
| 63.1 % of GpH7-A5/GpH7-B3/GpL16-k0 (=100) | B17 |
| 111 % of GpH7-A5/GpH7-B3/GpL16-k0 (=100) | B18 |
| 65.1 % of GpH7-A5/GpH7-B3/GpL16-k0 (=100) | B19 |

molecular target: T2, FcγRIIIa extracellular domain with …; experiment: SPR (Biacore), relative binding
Description: as §1, §2

| He/Con_3a (IIIa binding) | Binder |
| --- | --- |
| 28 % of GpH7-A5/GpH7-B3/GpL16-k0 (=100) | B1 |
| 83.7 % of GpH7-A5/GpH7-B3/GpL16-k0 (=100) | B2 |
| 51.2 % of GpH7-A5/GpH7-B3/GpL16-k0 (=100) | B3 |
| 44.9 % of GpH7-A5/GpH7-B3/GpL16-k0 (=100) | B4 |
| 41.4 % of GpH7-A5/GpH7-B3/GpL16-k0 (=100) | B5 |
| 20.7 % of GpH7-A5/GpH7-B3/GpL16-k0 (=100) | B6 |
| 28.7 % of GpH7-A5/GpH7-B3/GpL16-k0 (=100) | B7 |
| 84.8 % of GpH7-A5/GpH7-B3/GpL16-k0 (=100) | B8 |
| 79.3 % of GpH7-A5/GpH7-B3/GpL16-k0 (=100) | B9 |
| 42.4 % of GpH7-A5/GpH7-B3/GpL16-k0 (=100) | B10 |
| 115 % of GpH7-A5/GpH7-B3/GpL16-k0 (=100) | B11 |
| 30.5 % of GpH7-A5/GpH7-B3/GpL16-k0 (=100) | B12 |
| 106 % of GpH7-A5/GpH7-B3/GpL16-k0 (=100) | B13 |
| 114 % of GpH7-A5/GpH7-B3/GpL16-k0 (=100) | B14 |
| 2.8 % of GpH7-A5/GpH7-B3/GpL16-k0 (=100) | B15 |
| 72.4 % of GpH7-A5/GpH7-B3/GpL16-k0 (=100) | B16 |
| 42 % of GpH7-A5/GpH7-B3/GpL16-k0 (=100) | B17 |
| 30.3 % of GpH7-A5/GpH7-B3/GpL16-k0 (=100) | B18 |
| 40.5 % of GpH7-A5/GpH7-B3/GpL16-k0 (=100) | B19 |
